Laboratory results taken from the nanobody polyreactivity screen of Harvey et al. (2022).

Assay: yeast display, Sf9 membrane polyspecificity reagent, FACS + sequencing; frameworks hold sequencing errors
In short: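 Galactose induction of a Saccharomyces cerevisiae BJ5465 synthetic nanobody display library ran 36–48 hours. The cells were then stained for 1 hour at 4 °C with 10% biotinylated, detergent-solubilized Sf9 membrane reagent, pulled down on streptavidin microbeads and FACS-sorted into low and high (top ~1%) gates on expression and reagent-binding fluorescence. Labels for polyreactivity follow the gate of origin.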

Sequence	polyreactivity (PSR sort gate)
QVQLVESRGGLVQAGGSLLLSFAASGRTYPYNAMGWYIQAPRKERELVAGISSGGTTTYADSVKGRFTISRDNAKNTVYLQMNSLKPEDTAVYYCAATVIIFDHSLPGWDDYDYWGQGTQVTVSS	low polyreactivity
QVQLVESRGGLVQAGGSLPLSCAASGFIFTSYAMGWYRQAHGKEREFVAAISGSGGSTYYADSVKGRFTISRDNAKNTVYLQMNSLKPEDTAVYYCAAESWVGYYLYWYDYWGQGTQVTVSS	high polyreactivity
QVQLVESRGGLVQAGGSLRLRCAASGFIFGYNVMGWYRQAPGKERELVASISTGGRTYYADSVKGRFTISRDNAKNTVYLQMNSLKPEDTAVYYCAARYRSYSYLYYSWGQGTQVTVSS	high polyreactivity
QVQLVESRGGLVQAGGSLRLSCAASGFIFFQYAMGWYRQAPGTERELVAAISGSGVTTYYADSVKGRFTISRDNAKNTVYLQMNSLKPEDTAVYYCNAALRWKYDWGQGTQVTVSS	low polyreactivity
QVQLVESRGGLVQAGGSLRLSCAASGFIFGYYALGWYRQAPGKEWELVAAITNGGRTYYADSVKGRFTISRDNAKNTVYLQMISLKPEDTAVYYCAARPSWWSALFDSWGQGTQVTVSS	low polyreactivity
QVQLVESRGGLVQAGGSLRLSCAASGFIFSRYGMGWYRQAPGKERELVAAISRSGGSTYYADSVKGRFTISRDNAKNTVYVQMNSLKPEDTAVYYCATAYSWRNADWFAYSYDYWGQGTQVTVSS	low polyreactivity
QVQLVESRGGLVQAGGSLRLSCAASGFTFDNYGMGWYSQAPGKERELVAAISKSGTSTYYADSGKGRFTITRDNAKNTVYLQMNSLNPEDTAVYYCSGALPGYGDYYYWGQGTQVTVSS	high polyreactivity
QVQLVESRGGLVQAGGSLRLSCAASGFTFFVYPMGWYRQAAGKERELVAVITSGGTTNYADSVKGRFTISRDNAKNTVYLQMNSLIPEDTAVYYCATDNGGIPKYVPYDYWGQGTQGTVSS	high polyreactivity
QVQLVESRGGLVQAGGSLRLSCAASGFTFVGYAMGWYRQAPGKERALVAAISRRGTPTYYADSVKGRFTISRDNAKNTVYLQMNSLKPEDTAVYFCAASNGYQAVTYDYWGQGTQVTVSS	high polyreactivity
QVQLVESRGGLVQAGGSLRLSCAASGITFTIYAMGWYRQAPGKERELVAAITWTSDITHYADSVKGRFTISRDNAKNTVYLQMISLKPEDTAVYYCAATTWDEYDYWGQGTQVTVSS	high polyreactivity
QVQLVESRGGLVQAGGSLRLSCAASGITSRLNAMVWYRQAPGKERELVAGISRGGGTTYYADSVKGRFTISRDNAKNTVYLQMNSLKTEDTAVYYCAAAYRVRGGTYDSWGQGTQVTVSS	high polyreactivity
QVQLVESRGGLVQAGGSLRLSCAASGLTFVYYAMGWYRQAPGKERELVASIDYSGSSTYYADSVKGRFTISRDNAKNTVYLQMNSLKPEDTAVYYCAATDSGEYWGQGTQVTVSS	low polyreactivity
QVQLVESRGGLVQAGGSLRLSCAASGRIFNAYAMGWYRQAPGKERELVAAITVSGTRTYYADSVKGRFTISRDNAKNTVYLQMNSLKPEDTAVYYCAAEVVNYWYSYDYWGQGTQVTVSS	high polyreactivity
QVQLVESRGGLVQAGGSLRLSCAASGRILYVNDMGWYRQAPRKERELVAAISWRGGRTYYADSVKGRFTISRDNAKNTVYLQMNSLKPEDTAVYYCAARARGGYQRDYYWGQGTQVTVSS	high polyreactivity
QVQLVESRGGLVQAGGSLRLSCAASGRNFPINTMGWYRQAPGKERELVAAIRTSGSSTYADSVKGRFTISRDNAKNSVYLQMNSLKPEDTAVYYCNTKYPGRGYYWGQGTQVTVSS	high polyreactivity
QVQLVESRGGLVQAGGSLRLSCAASGRTFYSYAMGWSRQAPGKERELVAAITSSGGSTYYADSVKGRFTISRDNAKNTVYLQMNSLKPEDTAVYYCAAGKPYSSYWSWGYWTNLEDDYWGQGTQVTVSS	high polyreactivity
QVQLVESRGGLVQAGGSLRLSCAASGRTIINYAMGCYRQAPRKERELVAAITTGGRTNYADSVKGRFTISRDNAQNTVYLQMNSMKPEDTAVYYCNAVRYYRYYYWGQGTQVTVSS	low polyreactivity
QVQLVESRGGLVQAGGSLRLSCAASGSIFDSYAMGWYRQAPGKERELVADISSGGSTYYADSVKGRFTISRDNAKNTVYLQMNSLKPEDTAVYYCAAQYVYYFYGDEAFTDDYWGQGTQVTVSS	low polyreactivity
QVQLVESRGGLVQAGGSLRLSCAASGSIFGRNAMGWYRQAPGKERELVAAIRSGDSTNYADSVKGRFTISRDNAKNTVYLQMNSLKPEDTAVYYCAADYIFWHRRDKKSVVMDYWGQGTQVTVSS	low polyreactivity
QVQLVESRGGLVQAGGSLRLSCAASGSIFLVYAMGWYRQAPGKERELVAAIDSSGGSTYYADSVKGRFTISRDNAKNTVYLQMNSLKREDTAVYYCAVYIRYPWSGRYDYWGQGTQVTVSS	high polyreactivity

Sequence	polyreactivity (PSR sort gate)
QVQLVESRGGLVQAGGSLRLSCAASGSIFNANAMGWYRQAPGKEREIVAAITRAGGGTYYADSVKGRFTISRVNAKNTVYLQMNRLKPEDTAVYYCAREVFFYASTGQTYGYWGQGTQVTVSS	high polyreactivity
QVQLVESRGGLVQAGGSLRLSCAASGSIFTSYAMGWYRQAPGKERELVAAINGSGGSTFYADSVKGRFTISRDNAKNTVYLQMNSLKPQDTAVYYCNTGGPRGTTYDYWGQGTQVTVSS	low polyreactivity
QVQLVESRGGLVQAGGSLRLSCAASGSILVRYAMGWDRQAPGKERELVAAITGTSGGTYYADSVKGRFTISRDNAKNTVYLQMNSLKPEDTAVYYCNADGGSGAYLDLTITDYDYWGQGTQVTVSS	low polyreactivity
QVQLVESRGGLVQAGGSLRLSCAASGSNFYRNALGWYRQAPGKERELVAAISSDGSTNYADSVKGRFTISRDNAKNTVYLQLNSLKPEDTAVYSCAPHDRWHHRSLPYEYWGQGTQVTVSS	low polyreactivity
QVQLVESRGGLVQAGGSLRLSCAASGYIFSYNAMGCYRQAPGKERELVAATSSRGGSTYYADSVKGRFTISRDNAKNPDYLQMNSLKPEDTAVYFCAVSSRRVDTEPYDYWGQGTQVTVSS	high polyreactivity
QVQLVESRGGLVQAGGSLRLSCAASRRIFVRNAIGWYIQEPGKERELVAAISSSGGPTYYADSVKGRFTISRDNAKNTVYLQMNSLKPEDTAVYYCAASSSNKEYDYWGQGTQVTVSS	high polyreactivity
QVQLVESRGGLVQAGGSLRLSCAPSGIIFVRYAMGWYRQAPGKETELVAAISSSGGSTYYADSVKGRFTISRDNAKKTVYLQMNSLKPEDTAVYYCNARHRQWARGYWGQGTQVTVSS	high polyreactivity
QVQLVESRGGLVQAGGSLRLSCASSGSIFFSNAMGWYRQAPGKERELVAAISKSGGSTYYADSVKGRFTISRDNAKNTVYLQMNSLKPEDTAVYYCAAERTFLYWAYDYWGQGTQVTVSS	high polyreactivity
QVQLVESRGGLVQAGGSLRLSCASSGSTFVPNAMGWYRQAPGNERELDAAITFSGGTTYYADSVKGRFTISRDNAKNTVYFQMNSLKPEDTAVYDCAADYFSNLWWSGHAWRYYYWGQGTQVTVSS	low polyreactivity
QVQLVESRGGLVQAGGSLRLSCATSGRIFAKYAMGWYRQAPGKESELVAAITTTGRTYYADSVKGRFTISRDNAKNTVYLQMNSLKPEDTAVYYCAVGYHAPKVSTSDARYDYWGQGTQVTVSS	low polyreactivity
QVQLVESRGGLVQAGGSLRLSCDASGIIFVKYAMGWYRQAPGKERELVAAITSGGSTYYADSVKVRFTISRDNAKNTVYLQMNSLKPEDTAVYYCNADSWFLYYFTINGYWGQGTQVTVSS	high polyreactivity
QVQLVESRGGLVQAGGSLRLSFAASGSIFTPYTMGWDRPAPGKERELVAAITGSAGSTYYADSVKGRFTISRDNAKNTVYLQMNSLKPEDTAVYYCAAAVWGVYQWYYYWGQGTQVTVSS	high polyreactivity
QVQLVESRGGLVQAGGSLRLSFPASGFTQEFYAMGWYRQAPGKERELVASISSGGRTNYADSVKGRFTISRDNAKYTVYLQMNSLKPEDTAVYYFAAEYRSWGRYRYRFNYWGQGTQVTVSS	high polyreactivity
QVQLVESRGGLVQAGGSLRLSSAASGSTYGVNPMGWYRQAPGKERELVAAISVSGGRTYYADSVKGRFTISRDNAKNTVDLQMNSLKPEDTAVYYCNADGLYAYVWYDYWGQGTQVSVSS	low polyreactivity
QVQLVESRGGLVQAGGSLRLSYAASGITFRKYAIGWYRQAPGKESELVAAISWSGGSTYYADSVKGGFTISRDNAMNTVYLQMNSMKPEDTAVYYCAAPHWSPYDYWGQGTQVTVSS	high polyreactivity
QVQLVESRGGLVQARGSLRLSCAASGSTFVYYALGWYRTAPGTERELVAAITQRGGNTYYADSVKGRFTISRDNAKNTVYLQMNSLKPVDTAVYYCATKSYSQYFKFYYWGQGTQVTVSS	high polyreactivity
QVQLVESRGGLVQEVGSLRLSCAASGRIFYRYYMGWYRQAPGKERELVASITRSGITHYADSVKGRFTISRDNATNTVYLQMNSLKPEDTAVYYCAVDLLRRGFPTVVTTYDYWGQGTQVTVSS	high polyreactivity
QVQLVESRGGLVQSGGSLRLSCAASGSIFEIYHMGRYRQAPGNERELVASIRTSGGSTYYADSVKGRFTISRDNAKNTVYLQMNSLKPEDTAVYYCAAVGRSYYGHDYWGQGTQVTVSS	low polyreactivity
QVQLVESRVGLVQAGGSLRLSCAASGRIFHYYAMGWYRQAPGKERELVAAINASGTSTYYADSVKGRFTISRDNAKNTVYLQMNSLKPEDTAVYYCAAQPYYRGGSYSYTRNSKLIYWGQGTQVTVSS	high polyreactivity
QVQLVESRWRFVQAGGSLRLSCAASGSIFADYAMGWYRQAPGKERELVAAITFSGGSTYYADSVKGRFTISRDNAKNTVYLQMNSLKPEDTAVYYCASRWRYRYYSWGQGTQVTVSS	high polyreactivity
